Laboratory results from publication PMC9482650, “Quantitative fragmentomics allow affinity mapping of interactomes” (Nature Communications, 2022).
One block for each binder: values may come before it.

Columns and labels:
Experiment in all cases: holdup assay
Set-up in all cases: key: below the threshold = too weak to quantify, mostly under pKd 3.1 to 4
APBA1_1, Q02410 = molecular target: T1, APBA1_1, Q02410
T1 sequence (Q02410 651-752, limits assumed, looked up): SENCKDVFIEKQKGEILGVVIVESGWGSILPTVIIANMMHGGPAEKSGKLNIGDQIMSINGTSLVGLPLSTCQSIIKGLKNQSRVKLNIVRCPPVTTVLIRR

ARHGEF12, Q9NZN5-2 = molecular target: ARHGEF12, Q9NZN5-2
ARHGEF12, Q9NZN5-2, sequence (Q9NZN5 other isoform, or with tags, fused parts or gaps): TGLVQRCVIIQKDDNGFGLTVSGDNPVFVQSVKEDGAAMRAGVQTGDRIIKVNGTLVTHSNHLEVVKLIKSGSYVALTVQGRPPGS

DLG1_1, Q12959 = molecular target: DLG1_1, Q12959
DLG3_1, Q92796 = molecular target: T2, DLG3_1, Q92796
T2 sequence (Q92796 125-227, limits assumed, looked up): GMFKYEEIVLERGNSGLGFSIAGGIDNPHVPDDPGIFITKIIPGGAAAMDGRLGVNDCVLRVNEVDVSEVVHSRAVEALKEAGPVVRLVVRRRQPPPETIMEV

DLG3_3, Q92796 = molecular target: T3, DLG3_3, Q92796
T3 sequence (Q92796 374-475, limits assumed, looked up): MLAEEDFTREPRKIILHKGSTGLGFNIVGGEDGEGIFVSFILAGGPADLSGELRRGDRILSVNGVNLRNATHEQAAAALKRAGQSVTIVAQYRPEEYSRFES

FRMPD3, Q5JV73 = molecular target: FRMPD3, Q5JV73
FRMPD3, Q5JV73, sequence (Q5JV73 12-100): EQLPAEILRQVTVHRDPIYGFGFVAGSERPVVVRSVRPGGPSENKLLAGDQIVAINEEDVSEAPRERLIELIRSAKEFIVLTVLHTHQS

FRMPD4, Q14CM0 = molecular target: FRMPD4, Q14CM0
FRMPD4, Q14CM0, sequence (Q14CM0 67-160): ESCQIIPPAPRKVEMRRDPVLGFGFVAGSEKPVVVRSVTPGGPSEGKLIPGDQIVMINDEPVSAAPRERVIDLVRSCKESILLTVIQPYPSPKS

GIPC2, Q8TF65 = molecular target: GIPC2, Q8TF65
GIPC2, Q8TF65, sequence (Q8TF65 112-203): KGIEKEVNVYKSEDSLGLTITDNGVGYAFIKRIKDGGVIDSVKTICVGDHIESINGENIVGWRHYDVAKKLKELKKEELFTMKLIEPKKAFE

GRIP1_3, Q9Y3R0 = molecular target: T4, GRIP1_3, Q9Y3R0
T4 sequence (Q9Y3R0 247-346, limits assumed, looked up): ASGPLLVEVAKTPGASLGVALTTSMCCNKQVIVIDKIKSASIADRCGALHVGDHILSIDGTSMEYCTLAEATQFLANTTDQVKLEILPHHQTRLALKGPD

GRIP1_5, Q9Y3R0 = molecular target: T5, GRIP1_5, Q9Y3R0
T5 sequence (Q9Y3R0 568-668, limits assumed, looked up): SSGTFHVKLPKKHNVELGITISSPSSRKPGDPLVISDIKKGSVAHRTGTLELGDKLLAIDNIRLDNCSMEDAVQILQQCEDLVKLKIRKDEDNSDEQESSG

IL16_3, Q14005 = molecular target: IL16_3, Q14005
IL16_3, Q14005, sequence (Q14005 1107-1207): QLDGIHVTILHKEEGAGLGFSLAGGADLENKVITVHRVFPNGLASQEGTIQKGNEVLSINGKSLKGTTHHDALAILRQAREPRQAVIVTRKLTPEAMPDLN

IL16_4, Q14005 = molecular target: IL16_4, Q14005
IL16_4, Q14005, sequence (Q14005 1229-1329): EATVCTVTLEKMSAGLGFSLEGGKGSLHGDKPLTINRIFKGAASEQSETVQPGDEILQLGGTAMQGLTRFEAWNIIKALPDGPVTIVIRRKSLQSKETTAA

Inadl_3, Q8NI35 = molecular target: Inadl_3, Q8NI35
Inadl_3, Q8NI35, sequence (Q8NI35 359-469): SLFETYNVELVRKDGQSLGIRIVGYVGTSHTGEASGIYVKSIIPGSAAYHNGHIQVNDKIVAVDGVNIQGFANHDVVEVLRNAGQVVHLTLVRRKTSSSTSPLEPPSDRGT

Inadl_4, Q8NI35 = molecular target: Inadl_4, Q8NI35
Inadl_4, Q8NI35, sequence (Q8NI35 547-651): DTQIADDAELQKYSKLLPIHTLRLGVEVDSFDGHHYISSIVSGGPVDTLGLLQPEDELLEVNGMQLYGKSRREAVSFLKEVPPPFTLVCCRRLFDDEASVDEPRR

Inadl_9, Q8NI35 = molecular target: Inadl_9, Q8NI35
Inadl_9, Q8NI35, sequence (Q8NI35 1530-1615): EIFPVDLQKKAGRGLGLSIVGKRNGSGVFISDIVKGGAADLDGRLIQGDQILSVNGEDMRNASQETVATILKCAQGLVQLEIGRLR

LAP2, Q96RT1 = molecular target: LAP2, Q96RT1
LAP2, Q96RT1, sequence (Q96RT1 other isoform, or with tags, fused parts or gaps): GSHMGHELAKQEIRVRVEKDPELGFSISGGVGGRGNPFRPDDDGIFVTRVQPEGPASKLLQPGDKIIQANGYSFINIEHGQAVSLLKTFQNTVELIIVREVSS

LNX2_2, Q8N448 = molecular target: T6, LNX2_2, Q8N448
T6 sequence (Q8N448 334-432, limits assumed, looked up): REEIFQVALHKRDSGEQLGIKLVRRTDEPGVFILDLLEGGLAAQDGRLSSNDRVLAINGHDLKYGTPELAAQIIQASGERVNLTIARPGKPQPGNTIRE

MAGI1_2, Q96QZ7 = molecular target: MAGI1_2, Q96QZ7
MAGI1_2, Q96QZ7, sequence (Q96QZ7 456-580): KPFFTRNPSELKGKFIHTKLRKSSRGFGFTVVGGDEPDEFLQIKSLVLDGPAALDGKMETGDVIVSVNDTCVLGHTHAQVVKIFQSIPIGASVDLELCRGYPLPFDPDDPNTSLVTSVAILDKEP

MAGI2_2, Q86UL8 = molecular target: MAGI2_2, Q86UL8
MAGI2_2, Q86UL8, sequence (Q86UL8 410-522): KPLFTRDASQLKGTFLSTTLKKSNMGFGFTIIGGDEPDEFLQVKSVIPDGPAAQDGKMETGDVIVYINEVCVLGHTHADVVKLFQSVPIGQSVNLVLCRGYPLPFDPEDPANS

MAGI2_5, Q86UL8 = molecular target: MAGI2_5, Q86UL8
MAGI2_5, Q86UL8, sequence (Q86UL8 915-1017): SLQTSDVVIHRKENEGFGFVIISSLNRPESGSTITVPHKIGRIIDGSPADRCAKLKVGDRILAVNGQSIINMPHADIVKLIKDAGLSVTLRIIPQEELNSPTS

MPDZ_12, O75970 = molecular target: T7, MPDZ_12, O75970
T7 sequence (O75970 1857-1958, limits assumed, looked up): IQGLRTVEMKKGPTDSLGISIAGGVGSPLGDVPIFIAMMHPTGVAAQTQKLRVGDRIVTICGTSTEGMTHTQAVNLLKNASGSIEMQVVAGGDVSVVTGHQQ

MPDZ_5, O75970 = molecular target: T8, MPDZ_5, O75970
T8 sequence (O75970 695-796, limits assumed, looked up): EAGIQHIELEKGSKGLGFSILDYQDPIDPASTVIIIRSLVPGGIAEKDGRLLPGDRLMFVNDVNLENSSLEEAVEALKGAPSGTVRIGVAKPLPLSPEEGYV

NOS1, P29475 = molecular target: NOS1, P29475
NOS1, P29475, sequence (P29475 9-101): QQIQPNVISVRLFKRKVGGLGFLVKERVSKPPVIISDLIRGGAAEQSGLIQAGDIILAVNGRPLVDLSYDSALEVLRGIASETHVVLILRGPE

PCLO, Q9Y6V0 = molecular target: T9, PCLO, Q9Y6V0
T9 sequence (Q9Y6V0 4491-4600, limits assumed, looked up): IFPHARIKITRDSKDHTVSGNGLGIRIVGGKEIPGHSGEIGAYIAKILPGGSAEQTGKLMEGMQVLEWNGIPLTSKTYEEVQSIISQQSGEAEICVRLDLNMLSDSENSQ

PDZRN3_1, Q9UPQ7 = molecular target: T10, PDZRN3_1, Q9UPQ7
T10 sequence (Q9UPQ7 244-349, limits assumed, looked up): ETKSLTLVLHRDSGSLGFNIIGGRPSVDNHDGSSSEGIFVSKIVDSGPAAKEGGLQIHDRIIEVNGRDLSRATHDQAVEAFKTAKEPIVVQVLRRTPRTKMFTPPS

RHPN1, Q8TCX5 = molecular target: T11, RHPN1, Q8TCX5
T11 sequence (Q8TCX5 508-602, limits assumed, looked up): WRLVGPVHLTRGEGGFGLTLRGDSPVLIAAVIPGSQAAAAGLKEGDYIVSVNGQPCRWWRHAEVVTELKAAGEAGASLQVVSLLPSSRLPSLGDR

[1] = plain residues with an end cap or a label only (N-terminal biotin on a linker: ttds)
[2] = plain residues with an end cap or a label only (N-terminal biotin on a linker: ado-ado)
[3] = plain residues with an end cap or a label only (N-terminal biotin on a linker: ahx)

- pKd (APBA1_1, Q02410; [1]): below the threshold
- pKd (ARHGEF12, Q9NZN5-2; [1]): 3.98
- pKd (DLG1_1, Q12959; [1]): 3.89
- pKd (DLG3_1, Q92796; [1]): below the threshold
- pKd (DLG3_3, Q92796; [1]): below the threshold
- pKd (FRMPD3, Q5JV73; [1]): below the threshold
- pKd (FRMPD4, Q14CM0; [1]): below the threshold
- pKd (GIPC2, Q8TF65; [1]): below the threshold
- pKd (GRIP1_3, Q9Y3R0; [1]): below the threshold
- pKd (GRIP1_5, Q9Y3R0; [1]): below the threshold
- pKd (IL16_3, Q14005; [1]): below the threshold
- pKd (IL16_4, Q14005; [1]): below the threshold
- pKd (Inadl_3, Q8NI35; [1]): below the threshold
- pKd (Inadl_4, Q8NI35; [1]): below the threshold
- pKd (Inadl_9, Q8NI35; [1]): 3.52
- pKd (LAP2, Q96RT1; [1]): 3.88
- pKd (LNX2_2, Q8N448; [1]): 3.65
- pKd (MAGI1_2, Q96QZ7; [1]): below the threshold
- pKd (MAGI2_2, Q86UL8; [1]): below the threshold
- pKd (MAGI2_5, Q86UL8; [1]): 3.74
- pKd (MPDZ_12, O75970; [1]): 3.66
- pKd (MPDZ_5, O75970; [1]): 3.52
- pKd (NOS1, P29475; [1]): below the threshold
- pKd (PCLO, Q9Y6V0; [1]): below the threshold
- pKd (PDZRN3_1, Q9UPQ7; [1]): below the threshold
- pKd (RHPN1, Q8TCX5; [1]): below the threshold
B1: GDA, Q9Y2T3 (peptide)
chain: KQVVPFSSSV

- pKd (APBA1_1, Q02410; [2]): below the threshold
- pKd (ARHGEF12, Q9NZN5-2; [2]): 3.49
- pKd (DLG1_1, Q12959; [2]): 4.51
- pKd (DLG3_1, Q92796; [2]): 4.09
- pKd (DLG3_3, Q92796; [2]): 4.02
- pKd (FRMPD3, Q5JV73; [2]): below the threshold
- pKd (FRMPD4, Q14CM0; [2]): 3.9
- pKd (GIPC2, Q8TF65; [2]): 3.6
- pKd (GRIP1_3, Q9Y3R0; [2]): below the threshold
- pKd (GRIP1_5, Q9Y3R0; [2]): below the threshold
- pKd (IL16_3, Q14005; [2]): below the threshold
- pKd (IL16_4, Q14005; [2]): 3.52
- pKd (Inadl_3, Q8NI35; [2]): 3.53
- pKd (Inadl_4, Q8NI35; [2]): below the threshold
- pKd (Inadl_9, Q8NI35; [2]): 3.49
- pKd (LAP2, Q96RT1; [2]): 4.56
- pKd (LNX2_2, Q8N448; [2]): 3.73
- pKd (MAGI1_2, Q96QZ7; [2]): below the threshold
- pKd (MAGI2_2, Q86UL8; [2]): 3.74
- pKd (MAGI2_5, Q86UL8; [2]): 4.82
- pKd (MPDZ_12, O75970; [2]): below the threshold
- pKd (MPDZ_5, O75970; [2]): below the threshold
- pKd (NOS1, P29475; [2]): 4.17
- pKd (PCLO, Q9Y6V0; [2]): below the threshold
- pKd (PDZRN3_1, Q9UPQ7; [2]): 4.75
- pKd (RHPN1, Q8TCX5; [2]): 4.77
B2: DGKI, O75912 (peptide)
chain: IGHEDLETAV

- pKd (APBA1_1, Q02410; [3]): below the threshold
- pKd (ARHGEF12, Q9NZN5-2; [3]): below the threshold
- pKd (DLG1_1, Q12959; [3]): 4.26
- pKd (DLG3_1, Q92796; [3]): 3.9
- pKd (DLG3_3, Q92796; [3]): 3.68
- pKd (FRMPD3, Q5JV73; [3]): below the threshold
- pKd (FRMPD4, Q14CM0; [3]): below the threshold
- pKd (GIPC2, Q8TF65; [3]): below the threshold
- pKd (GRIP1_3, Q9Y3R0; [3]): below the threshold
- pKd (GRIP1_5, Q9Y3R0; [3]): below the threshold
- pKd (IL16_3, Q14005; [3]): below the threshold
- pKd (IL16_4, Q14005; [3]): below the threshold
- pKd (Inadl_3, Q8NI35; [3]): 3.7
- pKd (Inadl_4, Q8NI35; [3]): below the threshold
- pKd (Inadl_9, Q8NI35; [3]): 3.57
- pKd (LAP2, Q96RT1; [3]): below the threshold
- pKd (LNX2_2, Q8N448; [3]): 3.96
- pKd (MAGI1_2, Q96QZ7; [3]): 3.52
- pKd (MAGI2_2, Q86UL8; [3]): 3.48
- pKd (MAGI2_5, Q86UL8; [3]): 4.02
- pKd (MPDZ_12, O75970; [3]): below the threshold
- pKd (MPDZ_5, O75970; [3]): below the threshold
- pKd (NOS1, P29475; [3]): 3.55
- pKd (PCLO, Q9Y6V0; [3]): below the threshold
- pKd (PDZRN3_1, Q9UPQ7; [3]): below the threshold
- pKd (RHPN1, Q8TCX5; [3]): 4.09
B3: MTMR1, Q13613 (peptide)
chain: HSATSVHTSV
